Source: patent US20250277038A1

Assays:
[1] = biological target: human PD-L1 (Acro, Catalog Number: H5229) (human) (UniProt Q9NZQ7); assay: BLI, Octet RED96e, antibody on AHC sensor, antigen 100 nM, 1:1 fit
[2] = biological target: monkey PD-L1 protein on CHOK1 cell (monkey (cyno)); assay: FACS blocking assay: antibody titrated against Biotin-PD-1-mFc on CHOK1-cynoPD-L1 cells, SA488 detection
[3] = biological target: human PD-L1 protein on HEK293 cell (human) (UniProt Q9NZQ7); assay: FACS blocking assay: antibody titrated against Biotin-PD-1-mFc on HEK293-hPD-L1 cells, SA488 detection
human PD-L1 protein on HEK293 cell (human), sequence (Q9NZQ7 19-290): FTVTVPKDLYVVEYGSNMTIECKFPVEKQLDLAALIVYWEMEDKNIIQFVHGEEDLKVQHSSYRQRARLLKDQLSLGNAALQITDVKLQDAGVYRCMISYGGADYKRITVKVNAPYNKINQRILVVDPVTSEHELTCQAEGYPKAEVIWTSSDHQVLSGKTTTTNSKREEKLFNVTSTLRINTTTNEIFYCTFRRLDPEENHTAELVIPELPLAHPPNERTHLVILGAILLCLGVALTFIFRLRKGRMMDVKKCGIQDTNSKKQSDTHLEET

human PD-L1 (Acro, Catalog Number: H5229) (human), sequence (Q9NZQ7 19-238 limits assumed): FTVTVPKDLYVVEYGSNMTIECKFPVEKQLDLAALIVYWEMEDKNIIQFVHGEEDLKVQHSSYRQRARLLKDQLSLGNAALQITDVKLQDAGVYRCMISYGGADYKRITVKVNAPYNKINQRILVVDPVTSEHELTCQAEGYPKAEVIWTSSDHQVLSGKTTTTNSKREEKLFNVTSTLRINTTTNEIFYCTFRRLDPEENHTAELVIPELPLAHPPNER

Atezolimumab (antibody)
Kd [1]: 0.484 nM
koff [1]: 0.000311 s⁻¹
kon [1]: 644000 M⁻¹ s⁻¹
IC50 (read off the curve) [2]: 0.9 µg/mL
IC50 (read off the curve) [3]: 0.08 µg/mL
